Test results as given in patent US12297272B2, “IgG Fc variants for veterinary use” (Elanco US Inc., priority 2017, dated 2025).

What was measured:
[1] = cited from earlier work
[2] = type: in vitro ADME, feline
Protocol: (lane 1), in PBS for 24 hours at 37° C. (lane 2), in PBS for 24 hours at 4° C. (lane 9). A mouse anti-GLP1 antibody was used.
(§1) GLP1-G8_I_VARfeIgG2 (SEQ ID NO: 26) was stored in PBS, pH7.2 with feline serum at 37° C. for 24 hours to test in vitro serum stability.

[3] = Differential scanning fluorimetry, stability at various pH; type: physicochemical; details: n = 3, 10 μg construct
Text: Furthermore, differential scanning fluorimetry was used to assess the stability of the contiguous polypeptides at various pH, as reflected by mean melting point temperature (n=3) (Table 9, below). The increased stability of the variant feline IgG2 hinge is most evident at pH 6.

[4] = In vivo pharmacokinetics in cats, serum concentration by quantitative ELISA; details: single dose 2 mg/kg subcutaneous, 5 cats
Protocol: (§3) The plate was sealed and incubated overnight at 4° C. […] After removing the blocking buffer, serial dilutions of reference standard and samples in blocking buffer were added (100 μl/well) and the plate was incubated for 2 hours at room temperature. […] TMB substrate (ScyTek, Catalog No. TM1999) was added (100 μl/well) and allowed to incubate at room temperature for 1 minute. The reaction was stopped by the addition of 2M H2SO4 (50 μl/well).

[5] = type: in vitro ADME, feline; details: pH 7.2
Protocol: as §1

[6] = In vivo pharmacokinetics in cats, serum concentration by cell-based activity assay; details: single dose 2 mg/kg subcutaneous, 5 cats, 0 to 168 hours
GLP1R = target: T1, GLP1R (Homo sapiens, UniProt P43220); assay: Long-term storage stability, CHOK-1-GL1R cells with cAMP-Glo Max Assay; type: cell-based; details: stored in PBS, pH7.2, 1.3 mg/mL, 2-8° C. for one year
T1 construct: host or cells: CHO-K1 (hamster ovarian cell line), CHOK-1-GL1R
T1 sequence (P43220 24-463): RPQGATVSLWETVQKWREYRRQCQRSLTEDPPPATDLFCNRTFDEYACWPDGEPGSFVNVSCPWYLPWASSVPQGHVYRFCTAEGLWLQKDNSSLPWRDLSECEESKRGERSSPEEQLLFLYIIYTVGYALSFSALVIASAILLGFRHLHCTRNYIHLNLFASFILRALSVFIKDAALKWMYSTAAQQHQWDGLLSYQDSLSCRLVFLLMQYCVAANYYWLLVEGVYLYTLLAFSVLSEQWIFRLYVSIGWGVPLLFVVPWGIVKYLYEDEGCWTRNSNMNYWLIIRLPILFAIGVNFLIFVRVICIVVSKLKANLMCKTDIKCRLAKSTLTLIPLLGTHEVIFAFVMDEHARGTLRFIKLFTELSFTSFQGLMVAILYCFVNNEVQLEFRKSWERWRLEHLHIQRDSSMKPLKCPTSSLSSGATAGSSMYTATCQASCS
Protocol: GLP1-G8_I_VARfeIgG2 (SEQ ID NO: 26) was stored in PBS, pH7.2 at a concentration of 1.3 mg/mL, placed in 1.5 mL Eppendorf tube, and stored at 2-8° C. for one year (Lot 2-29-2016). GLP1-G8_I_VARfeIgG2 (SEQ ID NO: 26) was also stored in PBS, pH7.2 at a concentration of 10 mg/mL, placed in 1.5 mL Eppendorf tube, and stored at 2-8° C. for one day (Lot 2-2-2017).
CHOK-1-GL1R cells were plated in a 96-well plate (Corning, Cat #3610) at a density of 20,000 cells per well in F-12K Medium (ATCC, Cat #ATCC® 30-2004) supplemented with 10% Fetal Bovine Serum, heat inactivated (Sigma, Cat #2868) and incubated at 37° C., 5% CO2 for 24 hours. […] (Sigma Aldrich, Cat. #B8279) to a final concentration 100 μL.
The cells were incubated at room temperature for 30 minutes. In this process, upon GLP1 binding to the Gs-coupled GLP1R receptor, Gs stimulates adenylate cyclase to generate cAMP. […]
Mono-oxygenation of luciferin was catalyzed by luciferase in the presence of Mg^2+ and ATP that presented in the cell lysate, resulting in a luminescent signal proportional to the amount of ATP in the cells. At the end of 10 min incubation, the plate was read on a Synergy HT microplate reader (Biotek, Winooski, VT). Luminescence is proportional to ATP levels but inversely proportional to cAMP levels. Thus, as cAMP concentration increases, luminescence decreases.

[7] = in vivo, sc, 2 mg/kg
Protocol: as §3

[8] = in vivo, sc, 2 mg/kg; remark: listed apart in the source
C1q [9] = target: T2, C1q (Homo sapiens, UniProt P02745+P02746+P02747); assay: C1q binding of IgG Fc polypeptides (Octet biolayer interferometry described); as to C1q binding: key: (−) denotes low or no measurable binding activity
T2 sequence (P02745 23-245): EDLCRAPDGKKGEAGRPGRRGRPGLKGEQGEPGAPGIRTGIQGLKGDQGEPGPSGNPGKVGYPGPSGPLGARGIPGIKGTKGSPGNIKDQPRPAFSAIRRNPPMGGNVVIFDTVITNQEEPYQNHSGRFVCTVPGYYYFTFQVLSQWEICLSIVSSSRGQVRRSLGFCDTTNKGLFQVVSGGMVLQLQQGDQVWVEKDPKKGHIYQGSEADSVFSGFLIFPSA
T2 sequence (P02746 28-253): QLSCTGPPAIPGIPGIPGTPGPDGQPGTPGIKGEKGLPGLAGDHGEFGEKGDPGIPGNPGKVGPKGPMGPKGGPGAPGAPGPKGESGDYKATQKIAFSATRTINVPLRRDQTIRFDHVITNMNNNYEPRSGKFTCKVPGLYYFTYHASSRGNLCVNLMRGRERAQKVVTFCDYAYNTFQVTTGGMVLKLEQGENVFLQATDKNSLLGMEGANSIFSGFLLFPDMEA
T2 sequence (P02747 29-245): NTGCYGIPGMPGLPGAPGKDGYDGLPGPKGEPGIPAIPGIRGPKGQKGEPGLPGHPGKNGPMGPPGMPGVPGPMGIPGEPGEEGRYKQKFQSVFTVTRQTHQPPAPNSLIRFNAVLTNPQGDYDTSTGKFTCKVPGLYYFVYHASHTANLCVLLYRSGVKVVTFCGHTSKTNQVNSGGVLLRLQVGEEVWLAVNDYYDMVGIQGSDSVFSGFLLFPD
Text: (§2) Binding analysis may be performed using an Octet biosensor.

Protein A = Protein A (Staphylococcus aureus, UniProt P38507); details: for Protein A Binding: Wild-type Canine IgG Fc
Protocol: In some embodiments, the KD of an IgG Fc polypeptide, such as a variant IgG Fc polypeptide, to Protein A or to C1q or to CD16 is measured by using biolayer interferometry assays using a biosensor, such as an Octet® System (Pall ForteBio LLC, Fremont, CA) according to the supplier's instructions. In brief, biotinylated Protein A or C1q or CD16 is bound to the sensor tip and the association of IgG Fc polypeptide is monitored for a specified time or until steady state is reached. Dissociation may be monitored for a specified time or until steady state is reached. A buffer only blank curve is subtracted to correct for any drift. The data are fit to a 2:1 binding model using ForteBio data analysis software to determine association rate constant (kon), dissociation rate constant (koff), and the Kd. The equilibrium dissociation constant (KD) is calculated as the ratio of koff/kon. The term “kon” refers to the rate constant for association of a molecule X to its partner Y and the term “koff” refers to the rate constant for dissociation of a molecule X or partner Y from the molecule X/partner Y complex.
Binding analysis may be performed using an Octet biosensor. Briefly, the target molecule (e.g., Protein A, C1q, CD16, etc.) may be biotinylated and free unreacted biotin removed (e.g., by dialysis). The biotinylated target molecule is captured on streptavidin sensor tips. Association of the target molecule with various concentrations (e.g., 10 μg/mL) of IgG Fc polypeptide is monitored for a specified time or until steady state is reached. Dissociation is monitored for a specified time or until steady state is reached. A buffer only blank curve may be subtracted to correct for any drift. The data are fit to a 1:1 binding model using ForteBio™ data analysis software to determine the kon, koff, and the Kd.

CD16 = CD16 (Homo sapiens, UniProt P08637); assay: CD16 binding of IgG Fc polypeptides (Octet biolayer interferometry described)
Sequence of CD16 (P08637 17-254): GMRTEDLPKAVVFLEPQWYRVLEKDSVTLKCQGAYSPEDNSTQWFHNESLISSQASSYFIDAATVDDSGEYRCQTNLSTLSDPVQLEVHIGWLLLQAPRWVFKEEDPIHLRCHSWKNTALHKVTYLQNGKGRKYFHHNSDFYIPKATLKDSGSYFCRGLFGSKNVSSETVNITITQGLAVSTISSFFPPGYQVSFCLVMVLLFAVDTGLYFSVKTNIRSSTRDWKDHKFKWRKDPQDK
Text: as §2

C1q [10] = target: T2, C1q; assay: Binding between human C1q and canine IgG-B Fc fusion protein; details: compared to a fusion protein comprising wild-type canine IgG-B Fc
Text: as §2

Native GLP1: Glucagon-like peptide-1 (GLP1), a potent antihyperglycemic hormone
in vivo half-life [1]: approximately 2 minutes

B1: GLP1-G8_I_VARfeIgG2: Formula I GLP1-G8 contiguous polypeptide comprising variant feline IgG2 Fc of SEQ ID NO: 17 (Gly to Cys at position 14) (protein)
chain: HGEGTFTSDVSSYLEGQAAKEFIAWLVKGGGGSGGGGSGGGGSGGGGSPKTASTIESKTGECPKCPVPEIPGAPSVFIFPPKPKDTLSISRTPEVTCLVVDLGPDDSNVQITWFVDNTEMHTAKTRPREEQFNSTYRVVSVLPILHQDWLKGKEFKCKVNSKSLPSAMERTISKAKGQPHEPQVYVLPPTQEELSENKVSVTCLIKGFHPPDIAVEWEITGQPEPENNYQTTPPQLDSDGTYFLYSRLSVDRSHWQRGNTYTCSVSHEALHSHHTQKSLTQSPGK
modifications: Synthetic GLP1-G8_I_VARfeIgG2
degradation by Western blot [2]: no visible degradations were observed
Mean Melting Point Temperature (Tm) ([3]; pH 5): 53.1 °C
Mean Melting Point Temperature (Tm) ([3]; pH 6): 59.7 °C
Mean Melting Point Temperature (Tm) ([3]; pH 7): 59.9 °C
Mean Melting Point Temperature (Tm) ([3]; pH 8): 58.2 °C
average Cmax [4]: 12 µg/mL
average Tmax [4]: 22 h
mean area under the curve (AUC) [4]: about 950 m(h)/mL
activity after serum incubation [5]: activity was maintained
mean AUC [6]: about 840 μg(h)/mL
cellular activity after storage (GLP1R): maintained cellular activity
mean serum half-life (t1/2) [7]: 39 h
mean t1/2 [8]: 36 h

B2: canine IgG-C Fc: wild-type canine IgG-C Fc polypeptide (protein)
chain: PGCGLLGGPSVFIFPPKPKDILVTARTPTVTCVVVDLDPENPEVQISWFVDSKQVQTANTQPREEQSNGTYRVVSVLPIGHQDWLSGKQFKCKVNNKALPSPIEEIISKTPGQAHQPNVYVLPPSRDEMSKNTVTLTCLVKDFFPPEIDVEWQSNGQQEPESKYRMTPPQLDEDGSYFLYSKLSVDKSRWQRGDTFICAVMHEALHNHYTQISLSHSPGK
modifications: Wild-type canine IgG-C Fc , Protein A - , C1q +, CD16 +
notes: wild-type canine IgG-C Fc polypeptide
binding affinity to C1q (C1q [9]): bind to C1q
Protein A binding affinity (Protein A): weak or no measurable Protein A binding affinity
Protein A Binding (Protein A): −
CD16 binding activity (CD16): have CD16 binding activity

B3: fusion protein comprising variant canine IgG-B Fc K(93)R: fusion protein comprising variant canine IgG-B Fc K(93)R (SEQ ID NO: 78); fusion partner not stated (protein)
chain: PAPEMLGGPSVFIFPPKPKDTLLIARTPEVTCVVVDLDPEDPEVQISWFVDGKQMQTAKTQPREEQFNGTYRVVSVLPIGHQDWLKGKQFTCRVNNKALPSPIERTISKARGQAHQPSVYVLPPSREELSKNTVSLTCLIKDFFPPDIDVEWQSNGQQEPESKYRTTPPQLDEDGSYFLYSKLSVDKSRWQRGDTFICAVMHEALHNHYTQESLSHSPGK
modifications: left off: a dimerising Fc or GST
binding to human C1q (C1q [10]): Reduced binding

B4: canine IgG-D Fc: wild-type canine IgG-D Fc polypeptide (protein)
chain: PVPESLGGPSVFIFPPKPKDILRITRTPEITCVVLDLGREDPEVQISWFVDGKEVHTAKTQPREQQFNSTYRVVSVLPIEHQDWLTGKEFKCRVNHIGLPSPIERTISKARGQAHQPSVYVLPPSPKELSSSDTVTLTCLIKDFFPPEIDVEWQSNGQPEPESKYHTTAPQLDEDGSYFLYSKLSVDKSRWQQGDTFTCAVMHEALQNHYTDLSLSHSPGK
modifications: Wild-type canine IgG-D Fc , Protein A -, C1q -, CD16
notes: wild-type canine IgG-D Fc polypeptide
binding affinity to C1q (C1q [9]): weak or no measurable binding affinity to C1q
C1q Binding (C1q [9]; Wild-type Canine IgG Fc): −
Protein A binding affinity (Protein A): weak or no measurable Protein A binding affinity
Protein A Binding (Protein A): −
CD16 Binding (CD16; Wild-type Canine IgG Fc): −
